Data taken from the DeepSol protein solubility set.

Test: soluble on expression in E. coli; label from the status in PepcDB or PDB records

Sequence: MAHHHHHHMGKPGKKAGKGLLAPTNPNRRTDPNKTSLRDQRTIKRLKMYKSKIKRDEKGNIIKGSVLKASDRIEQQMARIAPDRRWFGNTRTIGQEALQKFREEMGTKYKDPYSVIIKQSKLPLSLLEEPKNTDGSIRKEMEWDKTFGDKANRKRVRLNAVDMSTLATEANVKGDYYDCNKKEKDRDLMKGVHKDRDDKTRNGILMTKGQSNRIWCELYKVIDSSDVVLYVVDARDPMGTRSAFLEDFMRREKKYKHFVLVLNKCDLVPLWATARWLQILSKDYPTIAFHASVNHPFGKGNVISLLRQFARLHNVTHRGSKRTKTPISVGVIGYPNVGKSSLINTLRRKSVCKVAPIPGETKVWQYVALTRSIFLIDCPGVVYDRESNNDIQAVLKGVVRVERLGNADKTDVVDTVLKIVKQRDIVATYGVREWRDVVDFLEKLAKLRGKLVAGGEPDVEAAARMLLYDWQRGRLPWFNAPPFESNKHHRDAMEQPQEKHMKLIEHYSTFNVVDDTINRGDEKQDEGGDGDEETANNAADEDQLDSGSEAEKDEEAVKPLKPSKTDRLSATKADTQLATVATYMREQEEKQRKAQRQQKRKAARKGQEDVEAFSADADRESDDALWAQFLAAAKV
- soluble on expression in E. coli: soluble

Sequence: MGSDKIHHHHHHMTDNFFHGVRVRESTDLVTAINDIDSTVIGIVAIADDADPEMFPLNTPVLLTRVNNALGKAGKTGSLYKSLKAISDQCSTKVIVVRVAAATDGDDNQTQSQLVIGGTAADGSYTGMYAFLTAEQKTGYRPRILAVPDHDTIEVATQLGVIAQKLRAFFYAYCHNCETIAEAKAYRETLNYREVMPIWPNFIAYNTLTGENEEFPAVAYACGLRALIDNTQGWHKSLSNVAVNNVLGISKDVFWALQAEDSDANELNAHEITTLIKRDGFRFWGNRTTDPDKEYIFEVYTRTAQILADSIAEAQFTTVDKPMTPGNVKDVVSGINAKLQALVTAGKLIGAACWFDIVDNPTTGLRQGKCIVRYNYTPVPPLEDLSLYQTFTDQYFETAFSSLGGA
- soluble on expression in E. coli: not soluble

Sequence: MGHHHHHHSHMGLQQEISLQPWCHHPAESCQTTTDMTERLSAEQIKEYKGVFEMFDEEGNGEVKTGELEWLMSLLGINPTKSELASMAKDVDRDNKGFFNCDGFLALMGVYHEKAQNQESELRAAFRVFDKEGKGYIDWNTLKYVLMNAGEPLNEVEAEQMMKEADKDGDRTIDYEEFVAMMTGESFKLIQ
- soluble on expression in E. coli: soluble

Sequence: MSLNELPEFEDYVVLTQQQNQNYKIVQQFNNFDKAILLGTSTFFEGFDFQANGIKCVMIAKLPFMNKHNAKYWLMDSEFTSTFKEYVLPDAVTRFRQGLGRLIRNENDRGIIVSFDDRLINSNYKNFFEQTLENYRQKKGDIQQFGKLLRQIQKEGHHHHHH
- soluble on expression in E. coli: not soluble

Sequence: MPVDTKTVLVVRHGTAGRRSRYKGDDRKRPLDKRGRAQAEALVAQLMAFGATTLYAADRVRCHQTIEPLAQELDQLIHNEPLLTEEAYAADHKAARKRLLEIAGRPGNPVICTQGKVIPGLIEWWCERAKVRPETTGNRKGSTWVLSLSDGELVGADYLSPPDEKLEHHHHHH
- soluble on expression in E. coli: not soluble

Sequence: VAGDTTITIVGNLTADPELRFTPSGAAVANFTVASTPRIYDRQTGEWKDGEALFLRCNIWREAAENVAESLTRGARVIVSGRLKQRSFETREGEKRTVIEVEVDEIGPSLRYATAKVNKASRSGGFGSGSRPAPAQTSSASGDDPWGSAPASGSFGGGDDEPPF
- soluble on expression in E. coli: soluble

Sequence: MGSDKIHHHHHHMPVMDRAAMRTMATLQPSCMRWLCTTPSILDAAKAGWPISWAATPDSPATVTIRQFQASTCCRKKTFDVVVNTDVLEHVPEAELDCVLRDFRKLSTNAIIIPHLAKATRILPNGENAHCTIKTPSEWAQVFKRHYAHVYELPHHSAVHALFLCGDQERDVTALRGILEQYVAAKNEVRHHLLPLGKRIEKAIRLIRGKDINR
- soluble on expression in E. coli: not soluble

Sequence: MSLLSKVVTQIKGFLHDSVDKASDDGRTARQLIRDVGENEEKIKEALVESRSQAIISKQKVEDKQSAIALSKKRAAKAVELDKEDLARTILVEKRQQESDLAALQNQQAKFDNIVVTLTSRFNDIQKKRSEMERKADSIDLRSKVAAATEEATKLLDVGNFASYDSASKVFDRLEDNIAKKEAKSQARGEFIDAEKDKQDELVSLDRHGLDESIEDELAALRAMNKKQELEHHHHHH
- soluble on expression in E. coli: not soluble

Sequence: MGSDKIHHHHHHEYKNVNEIIVEELEIPVPLGDPFILLHNGTYYAYGTHSDEGIEVYISDNLKTWKYKGLALNKKDSWADRWFWAPEVYEVNGKFYMYYSADEHICVAVADSPVGPFIQNKQEPMIVEEKCIDNSFFMDDDGTPYLSFVRFNDGNNVWIAELEKDLITLKKETMRPCIHVSQAWEEVWPRVNEGSYILKHNGIYYMTYSANSYESPFYGVGCATATDIMGEWAKYDENPLLQNPGGLVGVGHSAMFTDKEGKLRIVFHAHKDKSNIHPRAMYIGTVNFENVNGTDRMRISKEYITPKLLQ
- soluble on expression in E. coli: not soluble

Sequence: MGSDKIHHHHHHMSFLIGPFLKSFIDNVIKDTVIPVKGSVVYCGLFGYAEHSGIYIGDNKIVHLDGSGIIEVVSPQQFIERLSGLNPAMSIYVSCNGSSATGTNTIAKRAKKMVGKSRKYHVILDNCHQFTSGCITGNFDNADNFLWMLKSTAGNKLSTNKWRVWERKYSS
- soluble on expression in E. coli: not soluble

Sequence: MPSKTFLLTHTFKDISKLGEGESYYSDIEIRYNIPWSIQVFKNESFLGLLLNCEKEELLEKKKWSLQVKFTMKLVAVSGKFFQRTVKNEFQNPEGHGMDKFISWENMLRDYVNNDSIVIEINADIVSSSGFFKHKYSPCSQSYSGKSFVLKHNFKNRRFVEAERCFSDIEEHYNVPWRLRIQKYKKGFLGIHLLCEKETCDGRSWSIQCDYELQLISSKGKCYSRHSTFNFEKPGGNYQEVEFINWKVMEEEYMDSDSICVEAHVKICKTQELPCNILSTHRKFVLSHTVRNISSINGGNVYFTDIETRFNVPWKLSFVRQSGFIELYLRCEKKQCLSRTWSIEAEFTLKLVSPHGRSLSLRKIYSFEKSIGNGYSKVMRWDEMKDKYVVDNSIIIEAHVKILNMTGIESETTIKKTSGFTIPVGDMEYSMEKWMEMAFDH
- soluble on expression in E. coli: not soluble

Sequence: PLGSQTTHELTIPNNLIGCIIGRQGANINEIRQMSGAQIKIANPVEGSSGRQVTITGSAASISLAQYLINARLSSEKGMGCS
- soluble on expression in E. coli: soluble

Sequence: MAHHHHHHMSCLNVQPVQLPITNKFRNLPAGKPSHRHESTFCRFFSDTTEKECKGSRRNINHRNKSSIFDNVEENDIIDNTKINQYNNVKKRFVSNNSLEFKKTFQKNINYVPNEKYGKKNIPDVRNLYIFSRQELNSDTKERKSSKKISNYSLEKNPNKWGVDVLKYNLPSPKKIYRHVDNLTTCLVPKISEDSFIPKKNKKYYVTHLEKSLCPKENILLLNSKKKLIHLHQSKLEMNCVPKDYEQEINKNKPVFLERNLNNNLIPIVECKRRTFHVNDTCKNKQCSINFSCERKPSPFRSGKRIGYIFTRNDNPTFFF
- soluble on expression in E. coli: not soluble

Sequence: MDSDEEILSSYSSLTVTSRNETTISTRDSASNAMPVVVVDDEIFEDASSDISILTKRQESSSIHLDRSKMRKAVHQDLCTHDQKILEPLFLRKCEPHRVRQGTAPPNVIPIQKVENVEANKKFTGHSALLVSLNTPTYCVRYLAANAVHTPKNVLIFASPLSYVRFVARPDPQRTNQSVFEDPSETVRLMMAPDVAKVAQKMLPKWQTVTFTLAFGKHVAVKYRIIEVRKQPVTYVKAKADRVKRVSTSTLYRTEPVQRVDYWRSFKSNELKLSTVEKNDPQIVKRVFLEQQSLNWDPSGVIGTEKEHHHKTIVKSKKIKTGEELNLMWQRTDFH
- soluble on expression in E. coli: not soluble

Sequence: MTPIPFFNHMLITLLTYMNSTAIVSATDKLPYDDHHIVEDVAITLGLAIKTALGDKRGIKRFSHQIIPMDDALVLVSLDISNRGMAFVNLNLKRSEIGGLATENVPHFFQSFAYNSGITLHISQLSGYNTHHIIEASFKALGLALY
- soluble on expression in E. coli: soluble

Sequence: GGNLEEMNIDPDNATQTHPKLLLTQICMNAFKRGTDGMYATKKVIQADGESADQYYKWTRGSFGYYDNLRNVQKMGEEAERVNAPVYTALTKFFRAYYFYELTLRFGDIPYSQALKGEKEEIYTPEYDAQEDVFAGILQELREADEILANDASVIDGDIIYNGNSTQWRKLINSFRLKVLMTLSNHTTVGNINIASEFKNIATNSPLMNSLADNGQLVYLDQQGNRYPQFNAQWSGYYMDDTFIQRMRERRDPRLFIFSAQTNKGKTEGKPIDDFSSYEGGDPAAPYSDAIIKVSEGTISPINDRFRTDPIVEPTMLMGYAELQQILAEAVVRGWISGNAQTYYEKGIRASFSFYETHAKDYAGYLNENAVAQYLKEPLVDFTQASGTEEQIERIIMQKYLVTFYQGNWDSFYEQLRTGYPDFRRPAGTEIPKRWMYPQGEYDNNGTNVETAITRQFGAGNDKINQATWWQKKS
- soluble on expression in E. coli: soluble

Sequence: MIITDDHMHLYNHLKLKALEQFRDAGGTHVFLVNLLCHHYGIRPTSGKDFREVFERHLSLVEKANKIVKAYAVLGVHPAEITVIGDRIGHEKAAEMMKEALEIAGKYVEEGKAVALKSGRPHYPVSRHVWQLSNDVLRHAFEVAKDVGCAIQLHTESYTKEGMLEIAKMADEVGLKREKVVKHFSPPLIKEFEEIGIFPSVLAGNNNVLKAAEQGNRFTVETDYIDDRKRPGAVLGPKTVPRKVKELIELGYEDIAYKICVENVEKVYGV
- soluble on expression in E. coli: not soluble

Sequence: MGSDKIHHHHHHMALKKICLENFTVFDKMEIEFCDGVNVLIGENGTGKTHIMKLLYAACQSAHASKKVISFPQKIVQVFKPDHANISRLLSRKAGNGSAKVHVISGNNTLKTSFNLKTKNWDAEVVGAQAWEKQLSNLTSTFIPAKEILSNSKNLVNAINVGNVDFDDTYKDIISVASVDINRGPNNVQKEKYLQILQDITDGKVSYENEEFYLLPGNQAKLEFQLVAEGMRKIALLWQLIKNGTLEQGTVLFWDEPEANINPKHIPALVEVLLNLQGDGVQIFIATHDYVLAKYLEIRMADANKIRFHSLYKKEGRVEVESNHNFKDLVNNSIAEAYNKLLDEVFEQTTKG
- soluble on expression in E. coli: not soluble

Sequence: MGTIADIVVTEQNAERFWIVVHRDGAPSLRLTVDQDVLLQFRLKKGMEISDDLLQHIVYADEVKKAYQQALYFLAHRMRSEHEVAAHLRKKGAPDSVIDEVLKKLRAERYVDDEAFAAAYVRTQKKTAAKGPLLIRAELERLGVLGCLIEQSLAEYTLDEQMAIARSLYEKAKKQRLAESARAFLERVRQQLMRKGFPHEVIAAVLADGGAHTEQEEREALSVQAEKAHRRYAHHPRPLYEQKMRQALYRKGFALDLINEWLRMHGNDE
- soluble on expression in E. coli: not soluble

Sequence: MGGDMHEITLCQRALELIEQQAAKHGAKRVTGVWLKIGAFSCVETSSLAFCFDLVCRGSVAEGCKLHLEEQEAECWCETCQQYVTLLTQRVRRCPQCHGDMLQIVADDGLQIRRIEIDQE
- soluble on expression in E. coli: not soluble

Sequence: GPGSMIYSGEIENGQMHGRGCLQYPNKEKYDGDWVFGKRHGTGVYVYADGSRYEGEWVDDKVHGNGACYYTSGNVYTGEWSMGRINGRGVLEYHDGDRYEGEWKDGRMHGKGTYCYSNGDKYEGEWKEDKRHGKGVVVYAAPDGCVSEKYDGEWNEGRMQGWGKYFYADGGVYEGEWVDGRMHGRGTYVFPNGNKYEGEWVEDRKDGYGILLYTNGERYEGYWHLDKAHGKGTLTFLQGDRYVGEWHYGKKHGHGVLSYSNGDTYDGEWRDDDAWGYGVLQYANGCRYEGEWAEDRRHGKGLLVLPDGSSYEGSFAHGKKDGPGKIILKDGSMYIGTWKDGVIVGQGEFRLSENCDLSNPDY
- soluble on expression in E. coli: soluble

Sequence: MNINIVTIGKLKEKYLKQGIEEYTKRLSAYAKIDIIELPDEKAPENLSDQDMKIIKDKEGDRILSKISPDAHVIALAIEGKMKTSEELADTIDKLATYGKSKVTFVIGGSLGLSDTVMKRADEKLSFSKMTFPHQLMRLILVEQIYRAFRINRGEPYHKLEHHHHHH
- soluble on expression in E. coli: soluble
